# Reference: the DeepSol protein solubility set
# Assay: soluble on expression in E. coli; label from the status in PepcDB or PDB records
row,Sequence,soluble on expression in E. coli
1,MAHHHHHHMRPTCVCAVRAVRMYVPMRVAATGGATPSAASPAGDNASTSSEVRAARRITEAVLSARAKHKLQHRQPSPPTPVPPSVRAKAKAPRSPASDIEEGVVKDTVTVEVQTAARLALSYGKSAFMTHLVHQHDDAHQRPGTVSASEWDQPMVSDAGEPEASVMTASSETCAVLPLRARTPTIPRAAAGTPGLQMAIDKWWRDLTDEARVRWITSTPQGRRALQHATKLAKFRNVSCGQGRSSNSGAHVVPSMESMLTKYKNTLAQPRLPRAAALAPSPKESILRMKLQDEKGASVSPSSKPTTVSSALAGMMHAASENNANRRLLRDRADAVRREEQRKLWHQALVQFLGGASAFTFVHDVKDLQQPRTEAEQAVKREPGAQSGGGAGRATTVAPNTPAATATGNATPEEMADDGAPVAFSDGLLDMCEGLGIRSPRRAYVLSRVLPEVDAANASEGPPLSLAEVQDLAKKCSTEYDELRDDAMRTARETGSASAEDAVRAFEREQLALAVARVQKKLVMFQENLPLLKRCVNVLSK,not soluble
2,MAHHHHHHMRPYKRVLIKLSGGALADQTGNSFNSKRLEHIANEILSIVDLGIEVSIVIGGGNIFRGHLAEEWGIDRVEADNIGTLGTIINSLMLRGVLTSKTNKEVRVMTSIPFNAVAEPYIRLRAVHHLDNGYIVIFGGGNGQPFVTTDYPSVQRAIEMNSDAILVAKQGVDGVFTSDPKHNKSAKMYRKLNYNDVVRQNIQVMDQAALLLARDYNLPAHVFNFDEPGVMRRICLGEHVGTLINDDASLLVHEK,soluble
3,MAHHHHHHMRSPASEGDCGVRLRVSWREGKQRALTDELDAKHQSDPYETLQTSDRKVFVSNTAAGAGRLLTDPQVHADDKGFSTYLRERLLVRVLPEGQKCVCGADASNEHVHTCTRLQQNPRTTRHEMISMTFANGLRLCGFQCGMEPRLTEASRRRPDILIVGLDTYAITDVTVTYAGRVTAYVSEESMEEADPLRAARDRLTQKRQKYRHWALANGLDFEPFVMLTNGAIHPAIRRWLRRILGARVLAYAGAQWVAERQ,soluble
4,MAHHHHHHMRTFSRTARITSSAACVGRFEHQGVSRDAVLARWSLQVVKPNAMKTGGLIGKGMKFASPLGPSGWATRNSGTGSTVLDVNWDLRERMDYYVHYSVPSTWTVVEHVSDNSVAIQSKPPVCDSPGAEGPTVHGFSLNCFAYKQKVKEPDCEKLLSLFLHRFDASVSNSLAVLSKASGRGNGVICGTAKPEQDISEVLANRLECAVAEITFTPAVGEPLAHGLCRAFYNSNRRFHYVVVVAVPEDEFTLSKDLLTHALLAVVESRVEAAPKGT,soluble
5,MAHHHHHHMRTSDARPASPSAAPPQSRKYQLSQRPLQLPRPPPRRFLEHPHHNLLPCTSDVKRLMENEYELRRVVRDVLLERLGMEGSHVEPPLRLCTEDSAEVTASPFCAVASVSTPLSSAGESAKQPRCAHDTGLRSMRAPDVDDIAGSSQPTWLMPWLQRLRMEQEKQLRQMRKMLVVARRSVSPDSSDVDARASSLMKTTGEARDDTRTAEPPHALLWQRHRCLPPADRPEAVEACSTLRAMQETMQAQSTQLARLEELLQETLIPDTARRTSHGAGALPLPSPSVHQVEAAAAARANHTGHRSRSNDTVLPTLTHTAASPKKNVRRAVPSRSGCSADVPAAAAAAAAATSSRVSTCVSAPSPPPRLHPEKRTLCGGVH,not soluble
6,MAHHHHHHMRTSPLWRLRMTSRPLSLERVFVINLDRRPDRWAAIQAVCARAGLPAERTERVPAVEGSRLDVNAVHHCGFVSALGLRRLKEPPEHHIWGMDLNKAALGCALSHIHLWARIAALGKVSNISAEAPAATLPKQCFLVLEDDSTFADSDDNGSDSPAASPSLPFLDQLQRRMNSVPPDWELVYVSGLDTAKQCLHMQVAKGVARVPQYHRTTNAYLVTPQGARRLLATCVPLTFQLDTAMTMNVGYPPGVVGVAGAQTLPHVLDPVCYTLQPPLMQQAAQLDTDIQH,soluble
7,MAHHHHHHMSDVIKLCEAEELKELFIKEYNEYLKLIKNVELYYEKLEINWKKFHLFYQQNKKDPFEYHKEKNKHNKIKKVQNKKKNINIHSDYQSIEKYFKMIQKKEIQNNCHYYKKFDYDKDSFILFTLKKNVNNAVELYININIEKLNKIKNYLLNYINDFCKRQINQIINLIILCEIKLNNLYISQKNHFTNNNIKIKHIHLIKNIIHFNQQFIFEVTKNLIPFFTNFNIFSSPDYFNYQFNYFNNCVEIMGE,not soluble
8,MAHHHHHHMSDVSIYALRGTSALYEVLGVSRNATQREIRQGYYRLAVLYHPDKNPEGSDIFKEVCFAHGILSDPEQRALYDSGTLRAELESRARACDPSMDPGVELSPEDLRVFVDRVRQTQEANRQVQSTFELRREEEMKRRAEFDAKNPSFKAEYEQARHLRQHGCRGSTSAAHARASATADLSKTVPPKVRTSAEVLAELQREEEERLYGNPGIGSVDSSSSKRAESDGLSTKHHMMSHYRATHREASGAESLSNSYSGGSTAATVRRRQLETTRLPFVRAHCETPQYSETISATVQAYANYDYLTFVEGGSMDHGELEGAIMADALGNYDRHH,not soluble
9,MAHHHHHHMSEAALKREIALQEASDVVDNKSRVLPKSPADTRERTHEVVAATEPFEHPISLRSKVSAYVTLALLFLFARLRESYRQFFPNDESHVRPGYAPIVKDFDHYWNRRFYRRVRDCFMRPIDSRPSRVIGVMERVSKDNNQTFEYSGRIVPAVNMGSYNYLGFAEDTQSITHEVLDSIDDYGLASCSAPQGLGQSALVSRLEHEFAEFLGKEDAIVCGMGFATNFRGLPTLFGKETLVLSDSLNHSSLVNGVRSSGAKVKVFQHNHFGQVEKCLREGVVLGQDPCGEYKPYKRIVIIIEGIYSMEGEIVNLKKFVELKKKYKALLFVDEAHSIGAIGRTGRGVCEHTGVDPKDVDVLMGTFTKSFGSIGGYIAADKTLVRYLRQHSSIALHCDPLAPPCAQQVLSVLHVLLGKDGTDLGEKRIRQLKDNSSFFRRGLMDLGLVVLGDDSSPVVPVMCYSIGRLSALSRLCLERGVAIVIVGYPATPLLQGRVRFCVSACHTREDLQRTLDVIRELKGYVCMEDSTNPLR,not soluble
10,MAHHHHHHMSEALTPPDSWSHGHPDVNAELKLLRGAVAQALVEARQSSDFCRRIQHDISEYFQSEQRRRVQSGDSIESEQFIPNVMASVDGHLAEFESFIIGRVREELENKVDKDLSEKFDSYRMQLEHLRQQEEEQEARLRFILEDAVKMNCELRNEMKWCASELWDRVSAMEEKLKFMATRTHTNAGGKDVMDLGLPNALREVIGILTLLSEGLEVERELHNEERQRWMSLMSRAVEKIRLLGERDEALEANLQELRQVAAAIQHRFGEFSGFVVDFWHRLEMMGSPSVAVEDAACEGSLSMYSKAGICAKKQMDDFMKELHEVGVALRALQVEHVGFKDILDSNTVNITEIRRNVEALAVGAKLIAEERERIDREESSLDLQYLIRSTPRDGNECEGSTGTPRRGNLSLRKQWQVAHLPTLELLHGKICNIPISHAFRLWAAWASGRRQLRRDKTMVHEPQEDPDTNSLGSRK,not soluble
11,MAHHHHHHMSGAGRKHRAKHLTQQYLDASGWVGPKEGERLAICMESPHGQHVRVLLLVHPNSAPASSSTEAPAPDGSSSSDAPHGAKESEAGVSASPPSAAPLLEVEQVVHLPRKFHKVIWLSIKDVVVIADGTVSFKPSPEQVESFLKDPRNKGWRERVATAQHRAEDQRAALQRMPHYAATAQTTTSVLTGPQVRSGVRATANGTSEQDSEGSEGEADDMRNPNWRNIKHQQHFFYGLGDDSDEIEEEEDA,not soluble
12,MAHHHHHHMSRYVKYFVQAKRLDKRKRKFGQMDFLELSKELSIPFPLRERNQPKHLDLSKYLNIKVGDLVKVLYGPYKDKEGIVLNINTKRNTVIVDGCNMKKSAWNVTKKNAGSIITQEMPIHITNVAILDPISKKATVVKRRYMMHGECVRISKISGCAMPEPVSVQALKEQNNYELFIHKKKTGPPIKDIYAERDSKNFNLLKKIAYEIKRRRFYEMKNFFRDASPGKGSASPGGGSASLGEGSSSLEG,not soluble
13,MAHHHHHHMSSRIGHAGTGMPTRGIASFPNSPPAVRNSCSTADTEGFGVSMESTIFTGTFSTAACAHAPTRRTVEAREQTSTVLDHLVTHIVDVPFFLARNAEERAHGCSLSLATAACPGTKLVMRNPRRRLISHSSQTHGAPASSHWPKVLFVPDSSSQRLAAPP,not soluble
14,MAHHHHHHMSTLRHSHEPSPYVQKGEDLSGQKLTPTIKSYRNMEFLNSYSGRMIRILCEFEEPKQRLQQHFIRTTVLFFGSARSMTQAQYDSTVQDIHSKLAAATDDSTKASLQNKLACLKKTQWMCKWVDVVENLARMVAEFSQKEQDMIIRSFRHIPDYFRLTPEDGSESLDDLQKRFHDLVVTTGGGPGFMEAANHGAESVPGAVTMGMGISLPFENGLNPHVTKGLAFEFHYFFTRKFWMMYSCRAIVIAPGGFGTLDEMFELLTLKQTKKIPSLPVVLLGKEFWQTVVNWQALANYGVISQEEIDSLLFTDSAEEAVEHIKDFYHRLASDSPSTE,not soluble
15,MAHHHHHHMSTNRVATVVAGLDGANPVKRERHPAWYPPLKLDGNGLKVMNSLTETLEDFAPRDGRVVRWYTCGPTVYDLSHMGHARAYLTFDIIRRIMEDYFGYSVIYQMNITDIDDKIIKRARVNKLLVDFKEEELRHSDVAKLMAFTAEAVAAAESGLAKRKAALVEPIAKGTNSRAKADREEKLLEVQLKESQLVETKVKIAAAKDDFAALFAAASGVNGDLLDERSGHSVSDQQIFEDHARKYERAFFEDMQRLGIREPDIVTRVTEYVPQVVEFVQKIIDNGFAYAGETSVFFDTEAYIRAGHDYPKLKPGGDRNTTEDEMAEGEGVLSKGIEGEKRSPNDFALWKFSKPGEPRWPSPWGEGRPGWHIECSVMASDILGENMDIHSGGWDLKFPHHDNECAQSEACNLHSQWVNYFLHCGHLHIKGLKMSKSLKNFITIRQALDELGVTARTMRLLFLANPWNKPMNFSDQSLDEAKEKERVLRAFFGSVDIVLRADNWKATQGVNKHDRELLSKWVEAEAAVHAALQDNFDTVVALQQLMSLVAATNQYLLSGERPSATLVRKVGCYVTKMFRIFGVVEGSDDVGLQKQGSDDGEARFIEVVNTLVRFRDEVRNAAKDHKVVAGFLPLCDKVRDEWLVDAGVRLEDNPAGPTTWKSDEPALLQKELAERRAQQEGDRQRRLANQAETKRKLVEKWRQFTYPPSEYFRRQDEQRVEKKYTAYDDVTGLPTMTAAGEEVSEKEAKKLSKEQAKYAKSYDEFIGKGGVSWIQEQEAELASMVAELEGSK,not soluble
16,MAHHHHHHMSVPDLTAEELAYYASLRLEDPDEAALATFLADLEQVHEDHPSDTGAAPSSTVASASGKRGALLTSSRVPACERLDSSDVEGVPPQRRVASVDRQQPSAYAATGLAIRQISAKLFPAPRSATTDSGTRYGVTQVLEKDNLVGGVAGIADAALQTRCVELPARQLTSIAPVQCFLNATHVYLQHNALADLEGVELLSQLQVLVVHHNQLTSLAPLQQLECLSYLDVSHNNVSSSVDVLLRDELPCPSLKSLNLSNNPCWSRCGEAVSDGDGGERHRAYVQQICTACPLLERLDDVVVDDGEEVMQHSDNSTESDVKDVAERRSASAAGAAPSQAGGITVRRVHNSVEAARAASSRACVHDIHTRSSLAPPGSLVSGEAELSARPPRSAQVNKARLLEEEQARLVHQLFLRRAVGTAPGSAKAVDTVSTSPLHSNRSSTGSGHFHPGDAATEAPTEQKANQPADSTGDVSALYSTRGDILHLYHSLQFTQEVSQARLQRDVAAHWDDVSRVLQTVQALQQDRRRRIQQRLQEQTSAYTDSLIMLEKESFTKDLDRYRNSDGSRRAAPAGIHAAASAPAAPPAVDTPNGITAVAHTSAAVDGNCASKASSTSTHPPEKPKGKTKKGPSVPKPPPRR,not soluble
